Results taken from US12545899B2, “Luciferase enzymes for use with thermostable luciferins in bioluminescent assays” (Promega Corporation, priority 2018, dated 2026).
Where a chain is given by its changes, count along the chain named. Names and notes keep the numbering of the source.

B1: C2242E1: SEQ ID NO: 42; H244W+T344A+I396K+S193A+N228D+L305F+S306P+I109V+C38R+F55I+V262A+I422V (protein)
chain: MADKNILYGPEPFYPLEDGTAGEQMFDALSRYAAIPGRIALTNAHTKENVLYEEILKLSCRLAESFKKYGLKQNDTIAVCSENSLQFFLPVIASLYLGIIVAPVNDKYVERELIHSLGIVKPRIVFCSKNTFQKVLNVKSKLKSIETIIILDLNEDLGGYQCLNNFISQNSDSNLDVKKFKPYSFNRDDQVAAIMFSSGTTGLPKGVMLTHKNIVARFSIAKDPTFGDAINPTSAILTVIPFHWGFGMMTTLGYFTCGFRVALMHTFEEKLFLQSLQDYKVESTLLVPTLMAFLAKSALVEKYDFPHLKEIASGGAPLSKEIGEMVKKRFKLNFVRQGYGLTEATSAVLITPKGDAKPGSTGKIVPLHAVKVVDPTTGKILGPNEPGELYFKGPMKMKGYYNNEEATKAIIDNDGWLRSGDVAYYDNDGHFYIVDRLKSLIKYKGYQVAPAEIEGILLQHPYIVDAGVTGIPDEAAGELPAAGVVVQTGKYLNEQIVQDYVASQVSTAKWLRGGVKFLDEIPKGSTGKIDRKVLRQMLEKHTNGHHHHHHHH
B2: C2261D9: SEQ ID NO: 41; H244W+T344A+I396K+S193A+N228D+L305F+S306P+I109V+C38R+Y108F+T376I (protein)
chain: B1 chain with I55F, Y108F, A262V, T376I, V422I
B3: C2158A3: SEQ ID NO: 45; H244W+T344A+I396K+S193A+N228D+L305F+S306P+I109V+Q487R (protein)
chain: B1 chain with R38C, I55F, A262V, V422I, Q487R
B4: C2260B6: SEQ ID NO: 43; H244W+T344A+I396K+S193A+N228D+L305F+S306P+I109V+Y108F+V261A+N427D+F431V (protein)
chain: B1 chain with R38C, I55F, Y108F, V261A, A262V, V422I, N427D, F431V
B5: C2261D1: SEQ ID NO: 52; H244W+T344A+I396K+S193A+N228D+L305F+S306P+I109V+K121Q+V261A+V287I (protein)
chain: B1 chain with R38C, I55F, K121Q, V261A, A262V, V287I, V422I
B6: C2240E2: SEQ ID NO: 40; H244W+T344A+I396K+S193A+N228D+L305F+S306P+I109V+I230F+V335G+I410M (protein)
chain: B1 chain with R38C, I55F, I230F, A262V, V335G, I410M, V422I
B7: MK0142: SEQ ID NO: 109; H244W+S193A+N228D+L305F+S306P+I109V+C38R+F55I+Y108F+A316W+Y339M+T342S+V348I+T289R (protein)
chain: B1 chain with Y108F, A262V, T289R, A316W, Y339M, T342S, A344T, V348I, K396I, V422I
B8: MK0141: SEQ ID NO: 108; H244W+S193A+N228D+L305F+S306P+I109V+C38R+F55I+Y108F+A316W+Y339M+T342S+V348I+T284A (protein)
chain: B1 chain with Y108F, A262V, T284A, A316W, Y339M, T342S, A344T, V348I, K396I, V422I

Test: Luminescence of ATG-3707 variants (second round epPCR) with CS0333
Assay type: biochemical
Conditions: BrightGlo buffer, 25° C., 3 min
Procedure: Reagent compositions included CS0333 diluted from 20 mM to 2 mM in reaction buffer with 2 mM ATP. […] Reactions were incubated at 25° C. for 3 min, and luminescence was read and then normalized to ATG-3707 activity tested in parallel.

Molecule	Luminescence (RLU) BrightGlo [RLU]
B1	5643850
B2	4380280
B3	3392960
B4	2896240
B5	3436380
B6	3202900

Same assay, conditions: BrightGlo buffer, normalized to ATG-3707

Molecule	Normalized Luminescence BrightGlo
B1	1.45
B2	1.13
B3	0.87
B4	0.74
B5	0.88
B6	0.82

Same assay, conditions: CellTiterGlo buffer, 25° C., 3 min

Molecule	Luminescence (RLU) CellTiterGlo [RLU]
B1	708509
B2	628712
B3	1027180
B4	921045
B5	841889
B6	976519

Same assay, conditions: CellTiterGlo buffer, normalized to ATG-3707

Molecule	Normalized Luminescence CellTiterGlo
B1	1.10
B2	0.98
B3	1.59
B4	1.43
B5	1.31
B6	1.51

Same assay, conditions: Detection Reagent buffer, 25° C., 3 min

Molecule	Luminescence (RLU) Detection Reagent [RLU]
B1	6604720
B2	6890380
B3	6034440
B4	6230440
B5	4820920
B6	6978270

Same assay, conditions: Detection Reagent buffer, normalized to ATG-3707

Molecule	Normalized Luminescence Detection Reagent
B1	1.28
B2	1.34
B3	1.17
B4	1.21
B5	0.93
B6	1.35

Test: Kinetic analysis of ATG-3707 variants with CS0333
Assay type: biochemical
Conditions: BrightGlo
Procedure: Additionally, Table 5 (below) includes kinetic analysis of the ATG-3707 variants identified above. Reagent compositions included CS0333 serially diluted 10-fold from 1 mM to 10 fM in reaction buffer with 2 mM ATP. […] Reactions were incubated at 25° C. for 3 min, and luminescence was read and then normalized to ATG-3707 activity tested in parallel. […] Since C2157D2 was selected for improved brightness in CellTiterGlo® buffer over ATG-3707, it still had beneficial properties.

Molecule	Km [µM]	Vmax (RLU)
B1	5.81	7,021,077 RLU
B2	7.46	6,903,348 RLU
B3	5.15	4,009,543 RLU
B4	4.06	4,439,047 RLU
B5	5.92	4,702,332 RLU
B6	3.97	5,559,638 RLU

Same assay, conditions: Detection Reagent

Molecule	Km [µM]	Vmax (RLU)
B1	109	5,366,355 RLU
B2	117	6,756,516 RLU
B3	101	3,944,016 RLU
B4	68.2	4,995,834 RLU
B5	79.8	4,103,451 RLU
B6	88.7	5,831,602 RLU

Test: Brightness of additional luciferase enzyme variants with CS0333
Assay type: biochemical
Conditions: Table 7A; 1 mM CS0333; Bright-Glo buffer
How it was run: (§1)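 Each variant at 0.005 mg/ml combined with 1 mM ATP plus 1 mM substrate in Bright-Glo or Detection Reagent buffer; luminescence recorded as relative brightness.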

Molecule	Fold-improvement over ATG3707, CS0333 BG
B1	1.75
B2	1.10
B3	0.92
B4	0.70
B5	1.27
B6	1.26

Same assay, conditions: Table 7A; 1 mM CS0333; Detection Reagent buffer

Molecule	Fold-improvement over ATG3707, CS0333 DR
B1	1.63
B2	1.43
B3	1.15
B4	1.00
B5	1.24
B6	1.21

Test: Brightness of additional luciferase enzyme variants with CS0280
Assay type: biochemical
Conditions: Table 7A; 1 mM CS0280; Bright-Glo buffer
How it was run: as §1

Molecule	Fold-improvement over ATG3707, CS0280 BG
B1	1.25
B2	1.39
B3	1.30
B4	0.82
B5	2.02
B6	1.24

Same assay, conditions: Table 7A; 1 mM CS0280; Detection Reagent buffer

Molecule	Fold-improvement over ATG3707, CS0280 DR
B1	1.56
B2	1.89
B3	1.49
B4	0.97
B5	2.41
B6	1.39

Test: Differential scanning fluorimetry (DSF) analysis
Assay type: physicochemical
Parameters: key to DSF Tm: melting temperature in °C (heated 30-95 °C at 1 °C/min)
Conditions: Table 7A
How it was run: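 Enzymes mixed with Sypro Orange at 5× final, heated 30–95° C at 1° C per minute with fluorescence read every 60 s. Storage buffer 50 mM HEPES pH 7.5, 100 mM NaCl, 2 mM EDTA, or for luciferase variants 20 mM HEPES pH 7.5, 200 mM NaCl, 1 mM EDTA; per-minute fluorescence change plotted against temperature.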

Molecule	DSF Tm
B1	54
B2	61
B3	61
B4	55
B5	54
B6	49

Same assay, conditions: Table 12

Molecule	DSF Tm (° C.) [°C]
B7	71
B8	73

Test: Kinetic analysis of thermostable variants with 400 fM-4 mM CS0280 (Table 12)
Assay type: biochemical
Conditions: BrightGlo Buffer, 4 mM ATP
Procedure: Table 12 includes representative results of kinetic analysis of the thermostable variants with 400 fM-4 mM CS0280. This panel of enzyme variants have a combination of improved thermostability and brightness with CS0280 relative to their progenitor enzyme variants MK134 and MK137.

Molecule	Km [µM]	Vmax (RLU)
B7	4.98	1,409,786 RLU
B8	7.12	1,701,019 RLU

Same assay, conditions: Detection Reagent Buffer, 4 mM ATP

Molecule	Km [µM]	Vmax (RLU)
B7	32.3	70,257 RLU
B8	40.6	89,238 RLU
